Measurements: patent publication US20030077679

B1: human DYRK3 catalytic domain (amino acids 142-526 of SEQ ID NO:2) with an N-terminal GST-tag and C-terminal HIS6-tag (protein)
chain: PEQALKQYKHHLTAYEKLEIINYPEIYFVGPNAKKRHGVIGGPNNGGYDDADGAYIHVPRDHLAYRYEVLKIIGKGSFGQVARVYDHKLRQYVALKMVRNEKRFHRQAAEEIRILEHLKKQDKTGSMNVIHMLESFTFRNHVCMAFELLSIDLYELIKKNKFQGFSVQLVRKFAQSILQSLDALHKNKIIHCDLKPENILLKHHGRSSTKVIDFGSSCFEYQKLYTYIQSRFYRAPEIILGSRYSTPIDIWSFGCILAELLTGQPLFPGEDEGDQLACMMELLGMPPPKLLEQSKRAKYFINSKGIPRYCSVTTQADGRVVLVGGRSRRGKKRGPPGSKDWGTALKGCDDYLFIEFLKRCLHWDPSARLTPAQALRHPWISKSVP
B2: human DYRK2 (SEQ ID NO:6) with an N-terminal HIS6-tag (protein)
chain: MNDHLHVGSHAHGQIQVQQLFEDNSNKRTVLTTQPNGLTTVGKTGLPVVPERQLDSIHRRQGSSTSLKSMEGMGKVKATPMTPEQAMKQYMQKLTAFEHHEIFSYPEIYFLGLNAKKRQGMTGGPNNGGYDDDQGSYVQVPHDHVAYRYEVLKVIGKGSFGQVVKAYDHKVHQHVALKMVRNEKRFHRQAAEEIRILEHLRKQDKDNTMNVIHMLENFTFRNHICMTFELLSMNLYELIKKNKFQGFSLPLVRKFAHSILQCLDALHKNRIIHCDLKPENILLKQQGRSGIKVIDFGSSCYEHQRVYTYIQSRFYRAPEVILGARYGMPIDMWSLGCILAELLTGYPLLPGEDEGDQLACMIELLGMPSQKLLDASKRAKNFVSSKGYPRYCTVTTLSDGSVVLNGGRSRRGKLRGPPESREWGNALKGCDDPLFLDFLKQCLEWDPAVRMTPGQALRHPWLRRRLPKPPTGEKTSVKRITESTGAITSISKLPPPSSSASKLRTNLAQMTDANGNIQQRTVLPKLVS
B3: recombinant hDYRK3 (SEQ ID NO: 2) as used in Example 4 (protein)
chain: MGGTARGPGRKDAGPPGAGLPPQQRRLGDGVDTFMMIDETKCPPCSNVLCNPSEPPPPRRLNMTTEQFTGDHTQHFLDGGEMKVEQLFQEFGNRKSNTIQSDGISDSEKCSPTVSQGKSSDCLNTVKSNSSSKAPKVVPLTPEQALKQYKHHLTAYEKLEIINYPEIYFVGPNAKKRHGVIGGPNNGGYDDADGAYIHVPRDHLAYRYEVLKIIGKGSFGQVARVYDHKLRQYVALKMVRNEKRFHRQAAEEIRILEHLKKQDKTGSMNVIHMLESFTFRNHVCMAFELLSIDLYELIKKNKFQGFSVQLVRKFAQSILQSLDALHKNKIIHCDLKPENILLKHHGRSSTKVIDFGSSCFEYQKLYTYIQSRFYRAPEIILGSRYSTPIDIWSFGCILAELLTGQPLFPGEDEGDQLACMMELLGMPPPKLLEQSKRAKYFINSKGIPRYCSVTTQADGRVVLVGGRSRRGKKRGPPGSKDWGTALKGCDDYLFIEFLKRCLHWDPSARLTPAQALRHPWISKSVPRPLTTIDKVSGKRVVNPASAFQGLGSKLPPVVGIANKLKANLMSETNGSIPLCSVLPKLIS

What was measured:
[1] = molecular target: T1, human EID-1 with an N-terminal V5-HIS6 tag (in p423CDN)
T1 chain: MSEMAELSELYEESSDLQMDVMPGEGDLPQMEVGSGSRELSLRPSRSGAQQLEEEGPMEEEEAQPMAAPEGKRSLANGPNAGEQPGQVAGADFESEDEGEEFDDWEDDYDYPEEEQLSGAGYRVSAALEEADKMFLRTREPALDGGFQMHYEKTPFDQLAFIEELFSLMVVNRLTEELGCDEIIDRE

[2] = molecular target: T2, human EID-1 (SEQ ID NO:4) expressed in E. coli as an N-terminal HIS6 fusion
T2 chain: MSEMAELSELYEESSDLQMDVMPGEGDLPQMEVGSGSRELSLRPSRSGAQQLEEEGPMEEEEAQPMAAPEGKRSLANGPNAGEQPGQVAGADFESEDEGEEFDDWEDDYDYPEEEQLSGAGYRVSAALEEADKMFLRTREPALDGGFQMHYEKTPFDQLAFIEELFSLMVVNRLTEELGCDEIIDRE

Row | Protein | in vitro kinase assay with gamma-33P-ATP, radioactive band on Phosphorimager [1] | in vitro kinase assay with 33P-ATP, then LC-ES MS/MS of the Asp-N digest [2]
1 | B1 | There is a radioactive band that migrates at the same position as the EID-1 protein in the western blot while this band is absent in the vector alone lane | –
2 | B2 | There is a radioactive band that migrates at the same position as the EID-1 protein in the western blot while this band is absent in the vector alone lane | –
3 | B3 | – | there was a radioactive band that migrated at the same position as the EID-1 protein following electrophoresis
